Values quoted from earlier work, collected in article PMC7460564.
Where two headings read alike, the source gives them in different places.

Assays:
[1] = biological target: EGFR ECD (Homo sapiens) (UniProt P00533)
[2] = biological target: EGFR (Homo sapiens) (UniProt P00533)
[3] = biological target: EGFR ECD (Homo sapiens) (UniProt P00533); remark: listed apart in the source
[4] = biological target: HER2 (Homo sapiens) (UniProt P04626)

EGF (from UniProt P01133)
Kd [1]: 15 nM

PEPD (prolidase) (from UniProt P12955)
Kd [2]: 17.7 nM
Kd [3]: 5.3 µM
Kd [4]: 7.3 nM
